Laboratory results from PMC9482650, “Quantitative fragmentomics allow affinity mapping of interactomes” (Nature Communications, 2022).

Legend:
Assay in all cases: holdup assay
Set-up in all cases: key: below the threshold = too weak to quantify, mostly under pKd 3.1 to 4
Conditions in all cases: plain residues with an end cap or a label only (N-terminal biotin on a linker: ttds)
ARHGEF11, O15085 = molecular target: T1, ARHGEF11, O15085
T1 sequence (O15085 42-136, limits assumed, looked up): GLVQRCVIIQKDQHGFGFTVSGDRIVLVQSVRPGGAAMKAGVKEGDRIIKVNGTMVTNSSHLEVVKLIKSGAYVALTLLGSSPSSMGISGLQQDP

CASK, O14936 = molecular target: CASK, O14936
Sequence of CASK, O14936 (O14936 487-570): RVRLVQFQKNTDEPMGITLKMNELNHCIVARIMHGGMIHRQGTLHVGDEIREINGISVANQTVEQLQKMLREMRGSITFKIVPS

DLG1_1, Q12959 = molecular target: DLG1_1, Q12959
DLG3_3, Q92796 = molecular target: T2, DLG3_3, Q92796
T2 sequence (Q92796 374-475, limits assumed, looked up): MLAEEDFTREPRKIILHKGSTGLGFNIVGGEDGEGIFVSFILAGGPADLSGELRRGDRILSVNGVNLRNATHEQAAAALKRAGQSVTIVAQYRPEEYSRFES

GRIP1_2, Q9Y3R0 = molecular target: T3, GRIP1_2, Q9Y3R0
T3 sequence (Q9Y3R0 145-248, limits assumed, looked up): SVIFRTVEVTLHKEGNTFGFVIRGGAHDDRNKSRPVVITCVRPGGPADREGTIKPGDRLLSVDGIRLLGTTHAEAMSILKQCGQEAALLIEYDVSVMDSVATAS

GRIP1_4, Q9Y3R0 = molecular target: T4, GRIP1_4, Q9Y3R0
T4 sequence (Q9Y3R0 467-571, limits assumed, looked up): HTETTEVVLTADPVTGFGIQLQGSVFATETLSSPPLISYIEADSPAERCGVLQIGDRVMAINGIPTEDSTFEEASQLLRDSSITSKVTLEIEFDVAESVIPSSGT

GRIP2_3, Q9C0E4 = molecular target: GRIP2_3, Q9C0E4
Sequence of GRIP2_3, Q9C0E4 (Q9C0E4 238-339): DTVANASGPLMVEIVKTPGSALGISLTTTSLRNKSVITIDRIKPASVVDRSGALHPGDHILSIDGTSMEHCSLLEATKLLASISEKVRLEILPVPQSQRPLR

HTRA3, P83110 = molecular target: T5, HTRA3, P83110
T5 sequence (P83110 354-453, limits assumed, looked up): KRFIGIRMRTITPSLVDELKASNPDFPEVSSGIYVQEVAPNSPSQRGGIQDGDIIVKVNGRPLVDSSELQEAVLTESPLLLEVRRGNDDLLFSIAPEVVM

HTRA4, P83105 = molecular target: T6, HTRA4, P83105
T6 sequence (P83105 378-476, limits assumed, looked up): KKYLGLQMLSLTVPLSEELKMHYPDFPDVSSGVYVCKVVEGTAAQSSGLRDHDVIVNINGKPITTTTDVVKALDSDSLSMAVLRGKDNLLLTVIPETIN

Inadl_10, Q8NI35 = molecular target: Inadl_10, Q8NI35
Sequence of Inadl_10, Q8NI35 (Q8NI35 1673-1763): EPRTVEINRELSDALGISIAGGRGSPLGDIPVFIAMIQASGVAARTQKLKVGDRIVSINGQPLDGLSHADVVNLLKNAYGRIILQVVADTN

Inadl_4, Q8NI35 = molecular target: Inadl_4, Q8NI35
Sequence of Inadl_4, Q8NI35 (Q8NI35 547-651): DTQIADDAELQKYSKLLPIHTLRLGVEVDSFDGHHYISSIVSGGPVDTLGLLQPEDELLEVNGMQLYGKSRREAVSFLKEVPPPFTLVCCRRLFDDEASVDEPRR

Inadl_9, Q8NI35 = molecular target: Inadl_9, Q8NI35
Sequence of Inadl_9, Q8NI35 (Q8NI35 1530-1615): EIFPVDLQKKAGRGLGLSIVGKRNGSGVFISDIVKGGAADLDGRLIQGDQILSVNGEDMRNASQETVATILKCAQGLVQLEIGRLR

LIMK2, P53671 = molecular target: LIMK2, P53671
Sequence of LIMK2, P53671 (P53671 143-248): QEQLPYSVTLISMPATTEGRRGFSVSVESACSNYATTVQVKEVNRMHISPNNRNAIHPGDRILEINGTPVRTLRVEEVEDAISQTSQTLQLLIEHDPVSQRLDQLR

LNX2_3, Q8N448 = molecular target: T7, LNX2_3, Q8N448
T7 sequence (Q8N448 463-564, limits assumed, looked up): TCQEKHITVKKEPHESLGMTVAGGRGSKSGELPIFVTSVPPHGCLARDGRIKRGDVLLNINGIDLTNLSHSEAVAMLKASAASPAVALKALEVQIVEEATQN

MAGI1_1, Q96QZ7 = molecular target: MAGI1_1, Q96QZ7
Sequence of MAGI1_1, Q96QZ7 (Q96QZ7 1-106): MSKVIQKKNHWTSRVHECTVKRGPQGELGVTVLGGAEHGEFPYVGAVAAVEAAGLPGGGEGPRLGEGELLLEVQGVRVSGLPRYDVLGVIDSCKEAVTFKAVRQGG

MAST1, Q9Y2H9 = molecular target: MAST1, Q9Y2H9
Sequence of MAST1, Q9Y2H9 (Q9Y2H9 962-1065): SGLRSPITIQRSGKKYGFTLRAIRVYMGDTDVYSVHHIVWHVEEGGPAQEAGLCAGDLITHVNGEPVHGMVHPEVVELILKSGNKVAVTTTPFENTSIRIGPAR

MPP6, Q9NZW5 = molecular target: T8, MPP6, Q9NZW5
T8 sequence (Q9NZW5 125-219, limits assumed, looked up): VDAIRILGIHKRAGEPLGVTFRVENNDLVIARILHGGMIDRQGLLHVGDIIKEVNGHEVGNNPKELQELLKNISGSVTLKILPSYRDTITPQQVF

NHERF2_2, Q15599 = molecular target: NHERF2_2, Q15599
Sequence of NHERF2_2, Q15599 (Q15599 142-238): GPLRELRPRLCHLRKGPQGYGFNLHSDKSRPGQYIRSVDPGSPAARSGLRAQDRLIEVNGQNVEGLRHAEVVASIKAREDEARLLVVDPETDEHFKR

PARD3B_1, Q8TEW8 = molecular target: T9, PARD3B_1, Q8TEW8
T9 sequence (Q8TEW8 196-299, limits assumed, looked up): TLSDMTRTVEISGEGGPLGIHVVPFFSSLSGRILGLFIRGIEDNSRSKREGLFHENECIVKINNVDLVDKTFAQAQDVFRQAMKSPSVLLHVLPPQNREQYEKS

PARD3_3, Q8TEW0 = molecular target: PARD3_3, Q8TEW0
Sequence of PARD3_3, Q8TEW0 (Q8TEW0 582-685): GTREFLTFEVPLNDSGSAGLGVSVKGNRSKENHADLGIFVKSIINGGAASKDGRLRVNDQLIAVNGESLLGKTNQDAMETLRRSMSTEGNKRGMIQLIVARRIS

PDZD7_3, Q9H5P4 = molecular target: T10, PDZD7_3, Q9H5P4
T10 sequence (Q9H5P4 857-944, limits assumed, looked up): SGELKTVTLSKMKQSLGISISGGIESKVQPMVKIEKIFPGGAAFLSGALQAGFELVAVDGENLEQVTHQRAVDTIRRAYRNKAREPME

PDZRN4_1, Q6ZMN7 = molecular target: PDZRN4_1, Q6ZMN7
Sequence of PDZRN4_1, Q6ZMN7 (Q6ZMN7 213-318): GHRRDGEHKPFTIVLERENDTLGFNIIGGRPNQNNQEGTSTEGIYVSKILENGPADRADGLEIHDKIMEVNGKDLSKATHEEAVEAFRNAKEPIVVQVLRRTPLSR

PTPN3, P26045 = molecular target: PTPN3, P26045
Sequence of PTPN3, P26045 (P26045 505-587): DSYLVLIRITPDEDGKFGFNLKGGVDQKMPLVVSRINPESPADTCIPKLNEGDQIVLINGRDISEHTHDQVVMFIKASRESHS

RAPGEF6, Q8TEU7 = molecular target: T11, RAPGEF6, Q8TEU7
T11 sequence (Q8TEU7 525-625, limits assumed, looked up): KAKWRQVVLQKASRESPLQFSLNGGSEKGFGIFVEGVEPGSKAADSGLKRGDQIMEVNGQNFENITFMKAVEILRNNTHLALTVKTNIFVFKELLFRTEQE

SCRIB_3, Q14160 = molecular target: SCRIB_3, Q14160
Sequence of SCRIB_3, Q14160 (Q14160 999-1103): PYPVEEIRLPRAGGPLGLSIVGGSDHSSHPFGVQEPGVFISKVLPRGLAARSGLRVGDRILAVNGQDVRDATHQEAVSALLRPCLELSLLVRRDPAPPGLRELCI

TX1BP3, O14907 = molecular target: T12, TX1BP3, O14907
T12 sequence (O14907 10-122, limits assumed, looked up): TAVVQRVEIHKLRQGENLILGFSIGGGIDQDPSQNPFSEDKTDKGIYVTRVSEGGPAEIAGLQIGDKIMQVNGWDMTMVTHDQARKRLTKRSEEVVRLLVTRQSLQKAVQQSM

pKd (ARHGEF11, O15085): 4.93 | pKd (CASK, O14936): below the threshold | pKd (DLG1_1, Q12959): 4.46 | pKd (DLG3_3, Q92796): 3.83 | pKd (GRIP1_2, Q9Y3R0): below the threshold | pKd (GRIP1_4, Q9Y3R0): below the threshold | pKd (GRIP2_3, Q9C0E4): below the threshold | pKd (HTRA3, P83110): below the threshold | pKd (HTRA4, P83105): below the threshold | pKd (Inadl_10, Q8NI35): 3.52 | pKd (Inadl_4, Q8NI35): below the threshold | pKd (Inadl_9, Q8NI35): below the threshold | pKd (LIMK2, P53671): below the threshold | pKd (LNX2_3, Q8N448): below the threshold | pKd (MAGI1_1, Q96QZ7): below the threshold | pKd (MAST1, Q9Y2H9): 5.28 | pKd (MPP6, Q9NZW5): below the threshold | pKd (NHERF2_2, Q15599): 5.07 | pKd (PARD3B_1, Q8TEW8): 3.94 | pKd (PARD3_3, Q8TEW0): 4.31 | pKd (PDZD7_3, Q9H5P4): 5.27 | pKd (PDZRN4_1, Q6ZMN7): 5.42 | pKd (PTPN3, P26045): 5.11 | pKd (RAPGEF6, Q8TEU7): below the threshold | pKd (SCRIB_3, Q14160): 5.59 | pKd (TX1BP3, O14907): 5.11
Binder: STLTIFETAL [ABCC4, O15439]
